# B1: Hammerhead Ribozyme (parent)
# chain: ACCGGAUGUGCUUUCCGGUCUGAUGAGUCCGUGAGGACGAAACAG
# Variants of: B1
# Assay: self-cleavage, relative activity (ratio to wild type); higher = more cleavage; co-transcriptional
row,Variant,self-cleavage
1,AGCGGAUGUGCUUUCCGGUCUGGUGAGUCCGUGAGGACGAAACAG [C2G A23G],0.318
2,ACCGGAUGUGCUAUCCGGUCUGAUGAGUCCGUGAGGACGACACAG [U13A A41C],0.368
3,ACCGGAUGUGCUUUCCGGUCUGAUGAGUCCGUGAGGACGUCACAG [A40U A41C],0.275
4,ACAAGAUGUGCUUUCCGGUCUGAUGAGUCCGUGAGGACGAAACAG [C3A G4A],0.293
5,ACGGGAUGCGCUUUCCGGUCUGAUGAGUCCGUGAGGACGAAACAG [C3G U9C],0.574
6,ACCGGAUGUGCUUCCCGGUCUGAUGAGUCCGUGGGGACGAAACAG [U14C A34G],0.682
7,ACCGGAUGUGCUUCCCGGUCUGAUGAGUCCGGGAGGACGAAACAG [U14C U32G],0.546
8,ACCGGAUGUGCUUUCCGGUCUGAUGAGUCCGUUAGGACGAAACAG [G33U],0.977
9,ACCGGAUGUGCUUUCCGGUCUGAUGCGUCCGUGAGGACGCAACAG [A26C A40C],0.274
10,ACCGGAUGUGCUUACCGGUCUGAUGAGUCCGUGAGGACUAAACAG [U14A G39U],0.315
11,ACCGGAUGUGCUUUCCGGGCUGAUGAGUCCGUGAGGACGAAACUG [U19G A44U],0.286
12,ACCGGAUGUGCUUUCCGGUCUGAUGAGUCCGUGAGUACGGAACAG [G36U A40G],0.29
13,ACCGGAUGUGCUUUCCGGUCUUAUGAGUCCGUUAGGACGAAACAG [G22U G33U],0.416
14,AGCGGAUGUACUUUCCGGUCUGAUGAGUCCGUGAGGACGAAACAG [C2G G10A],0.383
15,ACCGGAUGUGCUUUCCGGCUUGAUGAGUCCGUGAGGACGAAACAG [U19C C20U],0.321
16,ACCGGAUGUGCUUUCCGGUCUGAUGAGGCCGUGGGGACGAAACAG [U28G A34G],0.793
17,ACCGGAUGUGCUUUCCGGUCUUAUGAGUCCGUGAAGACGAAACAG [G22U G35A],0.335
18,ACCGGAUGUGCUUUCCGGUCUGAUGAGUCCGUGAGGACGACAGAG [A41C C43G],0.408
19,ACCGGAUGUGCUUUCCGGUCUGAAGAGUCAGUGAGGACGAAACAG [U24A C30A],0.928

row,Variant,self-cleavage
1,ACCGGAUGUCCUUUCCGGUCUCAUGAGUCCGUGAGGACGAAACAG [G10C G22C],0.28
2,GCCGGAUGUGCCUUCCGGUCUGAUGAGUCCGUGAGGACGAAACAG [A1G U12C],1.71
3,ACCGGAUGUGCUUUCCGUUCUGAAGAGUCCGUGAGGACGAAACAG [G18U U24A],0.858
4,ACCGGAUGUGCUUUUCGGGCUGAUGAGUCCGUGAGGACGAAACAG [C15U U19G],0.327
5,ACCGGAUGUGCUUUCCGGUCUGAUGAGUCCGUAAGGACGAAACUG [G33A A44U],0.98
6,ACCGGAUGUGCUUUCCGGACUGAUGAGUCCGGGAGGACGAAACAG [U19A U32G],0.33
7,ACCGGAUGGGCUUUCCGGUCUAAUGAGUCCGUGAGGACGAAACAG [U9G G22A],0.321
8,AGCGGAUGUGCUUUCCGGUCUGAUGAGUCCGUGAGGACGAUACAG [C2G A41U],0.293
9,ACCGGACGUGCUUUCCGGUCUGAUGAGUCCGUGAGGAGGAAACAG [U7C C38G],0.533
10,ACCGGAUGUGCUUACCGGUCUGAUUAGUCCGUGAGGACGAAACAG [U14A G25U],0.297
11,ACCGCAUGUGCUUUCCGGUCUGAUGAGUCCGUGAGCACGAAACAG [G5C G36C],0.357
12,ACCGGAUGUGCUUUCGGGUCUGAUGAGUCCGUGAGCACGAAACAG [C16G G36C],0.362
13,ACCGGAUGUGCUUUCCGGUCUGAUAAGUCCGUGAGGACGAAACUG [G25A A44U],0.343
14,ACCGGAGGUGCUUUCCGGUCUGAUGAGUACGUGAGGACGAAACAG [U7G C29A],0.642
15,ACCGGAUGUGCUUUCCGGUCUGUUGAGUCCGUGCGGACGAAACAG [A23U A34C],0.345
16,ACCGGAUGUGCUUUCCGGUCUGAUGAGUCGGUGAUGACGAAACAG [C30G G35U],1.04
17,ACCGGAUGUGUUUGCCGGUCUGAUGAGUCCGUGAGGACGAAACAG [C11U U14G],0.765
18,ACCGGAUGUACUUUCCGGUCUGAUGAGUCCGUGAGUACGAAACAG [G10A G36U],0.632
19,UCCGGAUGUGCUAUCCGGUCUGAUGAGUCCGUGAGGACGAAACAG [A1U U13A],1.02

row,Variant,self-cleavage
1,ACCGAAUGUGCUUUCCGGUCUGAUGAGUCCGUGAGGACGAAACAC [G5A G45C],0.554
2,ACCGGAUGUGCUUUCCAGUCUGAUGAGUCCGUGAGGACGAACCAG [G17A A42C],0.341
3,ACCGUAUGUGCUUUCCGGUCUUAUGAGUCCGUGAGGACGAAACAG [G5U G22U],0.304
4,ACCGGUUGUGCUUUCCGGUCUGAUGAGUCUGUGAGGACGAAACAG [A6U C30U],0.743
5,ACCGGACGUGCUUUCCGGUCUGAUGAGUCCGUGAGGACGAAUCAG [U7C A42U],0.312
6,ACCGGAUCUGCUUUCCGGUCUGAUGAGUCCGUGAGGACGAAACAG [G8C],1.06
7,ACCGGAUGUGCAUUCCGGUCUGAUGAGUCCGUGAGGUCGAAACAG [U12A A37U],0.827
8,ACCGGAUGUGCUUUCCGGUCUGAUGAGUCCGAGAGGCCGAAACAG [U32A A37C],0.936
9,ACCGGAUGUGCCUUCCGGUCUGAUGAGUCCGUGAGGCCGAAACAG [U12C A37C],0.573
10,ACCGGAUGUGCUUUCCGGUCUGAUCAGUCCAUGAGGACGAAACAG [G25C G31A],0.339
11,CCCGGAUGUGCUUUCCGGUCUGAUGAGUCCGUGUGGACGAAACAG [A1C A34U],0.384
12,ACCGGACGUGCUUUCCGGUCUGAUGAGUCCGUGAGGACUAAACAG [U7C G39U],0.426
13,ACCGGAUGUGCUUUCCGGUCUGAUGAGUCCGUGAUGACGAAAAAG [G35U C43A],0.378
14,ACCGGAUGUGCUUUCGGGUCUGAUGAGUCCGUGAGGACGAUACAG [C16G A41U],0.393
15,ACCGGAUGUGCUUUCCGGUCUGAUGAGACCGUCAGGACGAAACAG [U28A G33C],1.15
16,CCCGGAUGUGCUUUCCGGUCUGAUGAGUCCGUGAGCACGAAACAG [A1C G36C],0.365
17,CCCGGAUGUGCUUUCCGGUCUGAUGAGUCCGUGAGAACGAAACAG [A1C G36A],0.394
18,ACCGGAUGCGCUUUCCGGUCUGAUGAGUCCGUGAGGACGAAACGG [U9C A44G],1.32
19,ACCGGAUGUGCUUGCCGGUCUGAUAAGUCCGUGAGGACGAAACAG [U14G G25A],0.315
